# Test results published in PMC2917178 (Biochemistry, 2010).
# Biological target: H3-H4 (Xenopus laevis, UniProt P84233 1-136; P62799 1-103)
# Assay: SEC
binder,measurement,value
"co-purified Rtt109-Vps75 complex (complex, acetyl-lysine at K290 (wildtype Rtt109 used is fully acetylated at K290, unpublished data)) chain 1: MSLNDFLSSVLPVSEQFEYLSLQSIPLETHAVVTPNKDDKRVPKSTIKTQHFFSLFHQGKVFFSLEVYVYVTLWDEADAERLIFVSKADTNGYCNTRVSVRDITKIILEFILSIDPNYYLQKVKPAIRSYKKISPELISAASTPARTLRILARRLKQSGSTVLKEIESPRFQQDLYLSFTCPREILTKICLFTRPASQYLFPDSSKNSKKHILNGEELMKWWGFILDRLLIECFQNDTQAKLRIPGEDPARVRSYLRGMKYPLWQVGDIFTSKENSLAVYNIPLFPDDPKARFIHQLAEEDRLLKVSLSSFWIELQERQEFKLSVTSSVMGISGYSLATPSLFPSSADVIVPKSRKQFRAIKKYITGEEYDTEEGAIEAFTNIRDFLLLRMATNLQSLTGKREHRERNQPVPASNINTLAITMLKPRKKAKALPKT chain 2: MMSDQENENEHAKAFLGLAKCEEEVDAIEREVELYRLNKMKPVYEKRDAYIDEIAEFWKIVLSQHVSFANYIRASDFKYIDTIDKIKVEWLALESEMYDTRDFSITFHFHGIEGDFKEQQVTKVFQIKKGKDDQEDGILTSEPVPIEWPQSYDSINPDLIKDKRSPEGKKKYRQGMKTIFGWFRWTGLKPGKEFPHGDSLASLFSEEIYPFCVKYYAEAQRDLEDEEGESGLSADGDSEDDDGSLGEVDLPLSDEEPSSKKRKV",binding result,binds
